Test results as given in patent US20230002480A1.

Assays:
Experiment in all cases: cell-based or functional assay
[1] = biological target: HIV-1 Env of pseudovirus ZM214M.PL15 (HIV-1)
[2] = biological target: HIV-1 Env of pseudovirus HIV-0013095-2.11 (HIV-1)
[3] = biological target: HIV-1 Env of pseudovirus 3365.v2.c2 (HIV-1)
[4] = biological target: HIV-1 Env of pseudovirus BJOX009000.02.4 (HIV-1)
[5] = biological target: HIV-1 Env of pseudovirus R3265.c06 (HIV-1)
[6] = biological target: HIV-1 Env of pseudovirus 6952.v1.c20 (HIV-1)
[7] = biological target: HIV-1 Env of pseudovirus MS208.A1 (HIV-1)
[8] = biological target: HIV-1 Env of pseudovirus R1166.c01 (HIV-1)
[9] = biological target: HIV-1 Env of pseudovirus HIV-16845-2.22 (HIV-1)
[10] = biological target: HIV-1 Env of pseudovirus C4118.c09 (HIV-1)
[11] = biological target: HIV-1 Env of pseudovirus X2088_c9 (HIV-1)
[12] = biological target: HIV-1 Env of pseudovirus 3016.v5.c45 (HIV-1)
[13] = biological target: HIV-1 Env of pseudovirus Ce2010_F5 (HIV-1)
[14] = biological target: HIV-1 Env of pseudovirus A07412M1.vrc12 (HIV-1)
[15] = biological target: HIV-1 Env of pseudovirus REJO4541.67 (HIV-1)
[16] = biological target: HIV-1 Env of pseudovirus 235-47 (HIV-1)
[17] = biological target: HIV-1 Env of pseudovirus Q461.e2 (HIV-1)
[18] = biological target: HIV-1 Env of pseudovirus BJOX010000.06.2 (HIV-1)
[19] = biological target: HIV-1 Env of pseudovirus PVO.4 (HIV-1)
[20] = biological target: HIV-1 Env of pseudovirus CNE53 (HIV-1)
[21] = biological target: HIV-1 Env of pseudovirus X1632_S2_B10 (HIV-1)
[22] = biological target: HIV-1 Env of pseudovirus WEAU_d15_410_787 (HIV-1)
[23] = biological target: HIV-1 Env of pseudovirus P1981_C5_3 (HIV-1)
[24] = biological target: HIV-1 Env of pseudovirus C1080.c03 (HIV-1)
[25] = biological target: HIV-1 Env of pseudovirus QH0692.42 (HIV-1)
[26] = biological target: HIV-1 Env of pseudovirus Du422.1 (HIV-1)
[27] = biological target: HIV-1 Env of pseudovirus Ce2060_G9 (HIV-1)
[28] = biological target: HIV-1 Env of pseudovirus Du156.12 (HIV-1)
[29] = biological target: HIV-1 Env of pseudovirus T257-31 (HIV-1)
[30] = biological target: HIV-1 Env of pseudovirus 191084 B7-19 (HIV-1)
[31] = biological target: HIV-1 Env of pseudovirus TRO.11 (HIV-1)
[32] = biological target: HIV-1 Env of pseudovirus 62357_14_D3_4589 (HIV-1)
[33] = biological target: HIV-1 Env of pseudovirus 6540.v4.c1 (HIV-1)
[34] = biological target: HIV-1 Env of pseudovirus ZM249M.PL1 (HIV-1)
[35] = biological target: HIV-1 Env of pseudovirus Q259.d2.17 (HIV-1)
[36] = biological target: HIV-1 Env of pseudovirus Ce0682_E4 (HIV-1)
[37] = biological target: HIV-1 Env of pseudovirus BJOX015000.11.5 (HIV-1)

NIH 45-46 (antibody)
neutralization IC50 [1]: 0.05 µg/mL
neutralization IC80 [1]: 0.39 µg/mL
neutralization IC50 [2]: 0.01 µg/mL
neutralization IC80 [2]: 0.03 µg/mL
neutralization IC50 [3]: 0.11 µg/mL
neutralization IC80 [3]: 0.11 µg/mL
IC50, titer in TZM.bl cells [4]: 0.26 µg/mL
IC80, titer in TZM.bl cells [4]: 1.16 µg/mL
IC50, titer in TZM.bl cells [5]: 0.04 µg/mL
IC80, titer in TZM.bl cells [5]: 0.44 µg/mL
IC50, titer in TZM.bl cells [6]: 0.02 µg/mL
IC80, titer in TZM.bl cells [6]: 0.07 µg/mL
neutralization IC50 [7]: 0.09 µg/mL
neutralization IC80 [7]: 0.6 µg/mL
IC50, titer in TZM.bl cells [8]: 1.68 µg/mL
IC80, titer in TZM.bl cells [8]: 1.68 µg/mL
neutralization IC50 [9]: 2.05 µg/mL
neutralization IC80 [9]: 12.1 µg/mL
IC50, titer in TZM.bl cells [10]: 0.14 µg/mL
IC80, titer in TZM.bl cells [10]: 0.91 µg/mL
IC50, titer in TZM.bl cells [11]: > 50 µg/mL
IC80, titer in TZM.bl cells [11]: > 50 µg/mL
IC50, titer in TZM.bl cells [12]: > 30 µg/mL
IC80, titer in TZM.bl cells [12]: > 30 µg/mL
neutralization IC50 [13]: 0.13 µg/mL
neutralization IC80 [13]: 0.43 µg/mL
IC50, titer in TZM.bl cells [14]: 0.03 µg/mL
IC80, titer in TZM.bl cells [14]: 0.13 µg/mL
neutralization IC50 [15]: 0.003 µg/mL
neutralization IC80 [15]: 0.01 µg/mL
IC50, titer in TZM.bl cells [16]: 0.3 µg/mL
IC80, titer in TZM.bl cells [16]: 1.49 µg/mL
neutralization IC50 [17]: 0.06 µg/mL
neutralization IC80 [17]: 0.32 µg/mL
IC50, titer in TZM.bl cells [18]: 0.87 µg/mL
IC80, titer in TZM.bl cells [18]: 6.37 µg/mL
neutralization IC50 [19]: 0.17 µg/mL
neutralization IC80 [19]: 0.47 µg/mL
neutralization IC50 [20]: 0.01 µg/mL
neutralization IC80 [20]: 0.04 µg/mL
IC50, titer in TZM.bl cells [21]: 0.07 µg/mL
IC80, titer in TZM.bl cells [21]: > 50 µg/mL
neutralization IC50 [22]: 0.01 µg/mL
neutralization IC80 [22]: 0.03 µg/mL
IC50, titer in TZM.bl cells [23]: 0.05 µg/mL
IC80, titer in TZM.bl cells [23]: 0.22 µg/mL
IC50, titer in TZM.bl cells [24]: 1.79 µg/mL
IC80, titer in TZM.bl cells [24]: 18 µg/mL
neutralization IC50 [25]: 0.55 µg/mL
neutralization IC80 [25]: 1.56 µg/mL
neutralization IC50 [26]: > 50 µg/mL
neutralization IC80 [26]: > 50 µg/mL
neutralization IC50 [27]: 0.14 µg/mL
neutralization IC80 [27]: 0.48 µg/mL
neutralization IC50 [28]: 0.01 µg/mL
neutralization IC80 [28]: 0.05 µg/mL
neutralization IC50 [29]: 0.23 µg/mL
neutralization IC80 [29]: 1.11 µg/mL
neutralization IC50 [30]: 0.02 µg/mL
neutralization IC80 [30]: 0.07 µg/mL
neutralization IC50 [31]: 1.9 µg/mL
neutralization IC80 [31]: 9.56 µg/mL
neutralization IC50 [32]: 0.05 µg/mL
neutralization IC80 [32]: 0.22 µg/mL
IC50, titer in TZM.bl cells [33]: > 50 µg/mL
IC80, titer in TZM.bl cells [33]: > 50 µg/mL
neutralization IC50 [34]: 0.02 µg/mL
neutralization IC80 [34]: 0.06 µg/mL
neutralization IC50 [35]: 0.01 µg/mL
neutralization IC80 [35]: 0.06 µg/mL
neutralization IC50 [36]: 0.07 µg/mL
neutralization IC80 [36]: 0.25 µg/mL
IC50, titer in TZM.bl cells [37]: 0.06 µg/mL
IC80, titer in TZM.bl cells [37]: 0.38 µg/mL
